The values below come from patent US20020041865A1.

Experiment [1] addresses H520C9sFv-hIL-2 fusion protein (human) (UniProt P60568). The experiment in a line: cell-based or functional assay.
In experiment [2] the target is recombinant human IL-2 (human) (UniProt P60568). As to the kind of experiment: cell-based or functional assay.
The target in experiment [3] is p185, the human HER-2/neu (c-erbB2) proto-oncogene product (human) (UniProt P04626). As to the kind of experiment: Scatchard analysis on SK-Br-3 cells.

B1: mouse anti-human IL-2 mAb MAB202 (antibody, from another filing, V domains shown)
VH: DVRLVESGGGLVKPGGSLKLSCAAYGFTFSSYTLAWVRQTPEKRLEWVAAIDSSSYTYSPDTVRGRFTISRDNAKNTLYLQMSSLKSEDTAMYYCTRDSNWDALDYWGQGTSVIVSS
VL: DIVMTQSQKFMSTSVGDRVSVTCKASQNVGTNVGWYQQKPGQSPKALIYSASFRYSGVPDRFTGSGSGTDFSLTISNVKSEDLAEYFCQQYYTYPYTFGGGTKLEIK
The molecule B1 gave a 50% inhibition of [^3H]-thymidine incorporation in CTLL-2 cells (Neutralization Dose 50) for the same dose of H520C9sFv-hIL-2 in experiment [1] of 0.128 µg/mL. For the same molecule, in experiment [2], the 50% inhibition of [^3H]-thymidine incorporation in CTLL-2 cells (Neutralization Dose 50) for 2 ng/ml rhIL-2 is 0.076 µg/mL.

B2: murine monoclonal antibody 520C9 (antibody, from another filing, V domains shown)
VH: EIQLVQSGPELKKPGETVKISCKASGYTFANYGMNWMKQAPGKGLKWMGWINTYTGQSTYADDFKERFAFSLETSATTAHLQINNLRNEDSATYFCARRFGFAYWGQGTLVSVSA
VL: DIQMTQSPSSLSASLGERVSLTCRASQDIGNSLTWLQQEPDGTIKRLIYATSSLDSGVPKRFSGSRSGSDYSLTISSLESEDFVVYYCLQYAIFPYTFGGGTNLEIK
For the molecule B2, the Ka in experiment [3] stood at 3.5e+08 M⁻¹.

B3: proteolytically cleaved Fab fragment of 520C9 (Fab, from another filing, V domains shown)
VH: B2 VH
VL: B2 VL
For the molecule B3, in experiment [3], the Ka was 6.7e+07 M⁻¹.
